Data: the DeepSol protein solubility set

Assay: soluble on expression in E. coli; label from the status in PepcDB or PDB records

| Sequence | soluble on expression in E. coli |
| --- | --- |
| MSLENLARFLSTTLKQLRQQRGWSLSRLAEATGVSKAMLGQIERNESSPTVATLWKIATGLNVPFSTFISPPQSATPSVYDPQQQAMVITSLFPYDPQLCFEHFSIQMASGAISESTPHEKGVIEHVVVIDGQLDLCVDGEWQTLNCGEGVRFAADVTHIYRNGGEQTVHFHSLIHYPRSEGGSHHHHHH | soluble |
| MSDGQYGPISAGIIRSITDKSYERRKAAALDVEKLVRDLFNNNQLSQLDKCLSVLGELINSGNSNQRKGGLIGMAAASIALGNKNAPPYTAKLVEPIIPCFHDADLQIRYYACESLYNIAKICKTSVLAHFEDIFDVLWRVTADSDQNVRGGAELLNRLITEIVLSEQEFDIAILMSLIRDRIYTQTSSNRRFILEWLNTIDSAPFFSFCNYISEISDGLFKMLGEQAPAVRDLCETVLGNFLTAIRSKPESLSLEDRIQMINVLVVHTHENEPFLARKLSLIWLEEFVKLYKTDLLVMLSTCLVGILPSIVETELKADAVNRLLMALVGEAKLEQDILDKTIEVLLKYIKYDVVETRVTVLNWIRHLHSSMPGQLFVHMHQIFPVLLNTLSDTSDEVLLLDLFLISNICQSESAPDQVDVSTFGLNETELKQVSHISPFLIKFVLSLLEMFRTEPTLLRERGVLIIRQLCLLLEPAHIYRVICVLLERESKHNFAQEMVSTLHGVLLTATELFILRDELRALSNESSRSLFECIFRVWSNRPIALLGLCLLSQHYQQAADIALLLSQVDITVDVLLEIDKLVNLVESPVLAYVRMDLLSSIHRPPLCTVLSALLMLLPQSEAFVTLHKRLQAVPALVSIDNSPYAPKVPPCRIDFPPLMLHFKAALARRQTEVRSRHRDLLSGVVTQMKNVKI | not soluble |
| MSLEYKVEDVSPVKKKVNVTVPVEEVDAALGAAIAMYRTSVNLDGFRKGKVPASIVENRFRKEIYAEATQDLVNVHINEIVTSLAVSPLSRIDFDGGELERGKEFSYTISFEVMPQFDLPDYEGFAVEQEKAVVDEKEVDEVIARIRRNMAELVPVAETRPGADGDVVVLDFAAFENGEPIEGVSAENFQLSLGEKQSLEDFENLVKTIPAGQEAEGPITFPDDFLNPDFAGKTVTMKVKVHAVKERRLPEIDDALAQKAGGFESMEKMRETVVTSYMQSREQLHKATAQKSMLDKLLKMVDFALPESMVDMYVGNLIEDMRVKMERQGRGLESLGKTPEQLREQVLPEAQQIARSQIFLLAAGRKEAVEVSEQEVDGQLQQLAMRSGQDFDTLKDYYVRNGLIFNLRDRLIADKAMDAIYAKANVTMVDPAPAEGHHHHHH | soluble |
| MGHHHHHHSHEEEGSPGGREDGFTAEHLAAEAMAADMDPWLVFDARTTPATELDAWLAKYPPSQVTRYGDPGSPNSEPVGWIAVYGQGYSPNSGDVQGLQAAWEALQTSGRPITPGTLRQLAITHHVLSGKWLMHLAPGFKLDHAWAGIARAVVEGRLQVAKVSPRAKEGGRQVICVYTDDFTDRLGVLEADSAIRAAGIKCLLTYKPDVYTYLGIYRANRWHLCPTLYESRFQLGGSARGSRVLDRANNVELT | soluble |
| MGSDKIHHHHHHMENLTLKGKVILEGIIELETGMHIGGTKETLKIGGTDNPVIRDAFGRILIPGSSLKGKIRALLERKDGKYKEDGRGNYLPHDCGECEICKIFGPHDSKNIKEPVRVIVRDAYLQPEENKKDYDYLEIKVENTIDRLKGTTIKGGIRNMERVVAGSKFKFEVVFNIYKESDKELIKKFIEGMKLLEDDYLGGSGSRGYGKIKFRDIKLICKPKEYYEGNENSKKESDEVESLNELESELDKIWGGINFN | not soluble |
| LTVSARDAPTKISTLAVKVHGGSRYATKDGVAHLLNRFNFQNTNTRSALKLVRESELLGGTFKSTLDREYITLKATFLKDDLPYYVNALADVLYKTAFKPHELTESVLPAARYDYAVAEQCPVKSAEDQLYAITFRKGLGNPLLYDGVERVSLQDIKDFADKVYTKENLEVSGENVVEADLKRFVDESLLSTLPAGKSLVSKSEPKFFLGEENRVRFIGDSVAAIGIPVNKASLAQYEVLANYLTSALSELSGLISSAKLDKFTDGGLFTLFVRDQDSAVVSSNIKKIVADLKKGKDLSPAINYTKLKNAVQNESVSSPIELNFDAVKDFKLGKFNYVAVGDVSNLPYLDEL | soluble |
| MTSLPPRNRSASLFEGSPFAPSSTTSPPTSSLAKMLKSEPIPCLRCGNVGSPTGSVPMSLHKVSSINRSAGTNPASRGGESSLELEAIAAVHELSFAVQSISVSEMLPRTPDLIFVNVTTLEAQPYCLELTLKGWRITSLRSDCMVGDFTRLELFTKYYDSLYLLMDDISPGYRERFSEKLVQRLKLIEAGEEDQVAPCASLQSPSLSTDSSSKESQYSSTESLPIVTPVSTPAIDPDFKPKFK | not soluble |
| MSLTIKLIAIDIDGTLLNEKNELAQATIDAVQAAKAQGIKVVLCTGRPLTGVQPYLDAMDIDGDDQYAITFNGSVAQTISGKVLTNHSLTYEDYIDLEAWARKVRAHFQIETPDYIYTANKDISAYTIAESYLVRMLIQYREVSETPRDLTISKAMFVDYPQVIEQVKANMPQDFKDRFSVVQSAPYFIEVMNRRASKGGTLSELVDQLGLTADDVMTLGDQGNDLTMIKYAGLGVAMGNAIDEVKEAAQAVTLTNAENGVAAAIRKYALNEGHHHHHH | soluble |
| MAVTVDDIKLSLRIDVTEDDPMIKSYLDAAKDYVQTAVSKNEDLTIYKQYDFAVSLLTQFWYQNRVTDMTKTPYQVVSMIQQLRGLVAG | not soluble |
| AMNAYYIQDRLEAQSWARHYQQLAREEKEAELADDMEKGIPQHLFESLCIDHLQRHGASKKSITRAFDDDVEFQERMAEHIRYMVETIAHHQVDIDSEV | soluble |
| MELQQLPQHVRDAFHAPNTPPRQLGVAWDYGWRVGNVAFSQVIHPDRSAWSARVRDKLQPQGLRVVRPLKSTDGRYINAGWRANSFEEGTLARRVDETVVAALRLDTALADIDVPDSFSEPDSHDLFSLADHSAWAPEPMVALGVTSDAEAVFLNPAQLTAQRLLPKIVLLLRDIDAPIQVTHADMFATTIYSGNQMPVVTDLVGVARPYGYTAAVCIVDALLAGAVDEGIIDRFSHIQHRDQLLLRALVYRIAVHALHPESTSNTGTNLEWVSQTIMSRASVTL | soluble |
| MAIRKLLLLLKPIDPYPFLQTEGASLIKNPQVLINYLPQMRLISILNPDHVLQYLESRCKVHKNAIKFCQEILSKKPVEWKPISRNDLSHPIRDVDMVITVGGDGTLLHASHFIDDSVPVLGVNSDPTQAHEVEELSDQFDASRSTGHLCAATVENFEQVLDDILFGRVVPAKVSRISLKLNSETLLSHALNDILIAQPCPAAVSRFSFKIKNKDGASSPKTVNCRSSGLRICTAAGSTAAMQSAGGFVMPMLSRDLQFMVREPISPGSTASLMHSTFKPDQFMDVNWYSDHGTIYIDGCQVQHSVQLGDTIEISSDAPVLNVFLSHGISQIRSRY | soluble |
| MGSDKIHHHHHHMLSDKQKKHILVNRDGLKYYTVEGLEKVHEEMLRLLLIIDTIAKENNIPYWIDGGSLIGIVRHKGFIPWDDDLDISLLKKDYLRLIKEISMYCEMHNDVALFYNEPLVEHTCNFFASKKVFSRTQGSCVLVPVKIDIRPVNCIVKNKDNVIENNIYRDTANYIIFGKSYGYMKKTLSHKNEQMDFLEYYNYKYGLVDSGLENVIMVHPYFEFSNTFELTYNDLFPLKMLQFENMLLPVPNNYDYLLKELYGDYMSYPNICHRAPVACQIYQRQLKDNRFNLCLSMFKHTNRGLLYRMRIILVQIRLLGVFEYMKIKIYE | not soluble |
| MQNMFDGVQLFVEVVEAGGFAKAGKRLSLTRSTIGKAIARLEMRLGVQLFQRTTRVQSLTEDGQQYYERCLRAIKELRAGEAMLEQGRREVAGRLHVSLPVLFGRQCVAPILRTYAREHPQLELELNFSDHHVDLIADGFDLAVRNGPLGNGTTLRARRLGNQRKILCASPTYLAARGKPHTLADLADHDLLTYCRNDRNMAWTLPDATGALVDIPITSRLRCNDLEVIADTAVDGMGVAWLPYWLLMERMQRGELIGIWGDRPSAVIECHVVWPAAQHVPLRSRLAINLLAAELPKYLEA | not soluble |
| MAHHHHHHMSFVKGAIHVSILNNYMDFYKESTVDKIETSFSIRNNNESNTKNNEKRKSSLCIMNDEEKMKNKISKCIKNNNLYKNKKKRRKEKNIISNKSRSKKFLKFNIKGKDKKNNINSNIYNNANNNKLKIKNKNNNNNNNNNKINSCCRNVYKGSTNKRNSKLLLNGEIKHDEIFHTNIDNSFICMNKNDMNLIRKCKENNHPIKQMNTKIKKKKYNKKNVLISKQINKEIQMLKSNNSYIMYHMNEKRNIEKEKKKKKCKKIVKSILYNRKRSHYYISNFLKTCMKIKNNKIQKKLKKYVYLKDIYSTINMSNKQTCNNLNEQNKSQFFFDDLQKVRQVNKCDNKLYKMNFKSLKHQTNGKKNNIKENDNNNNFYNEDNSIAEILSDDYIILNKNKSNKMENKIYNNVINHRHSSEDIYLNHSKSKENNNNLVNSYVMKENNMEDKELMNDNEKKEGQLILKNVNKKIQLCNESKLDNEKKNKGDNIKLGNTKNKDNIYKYLNVLSINKLIKGETYLEKRTKKSDNSNEHKNDNIYDDKKIKYKSVENDTSELLDKNIDNSNFFDEANEKKKKLKKKKMNTCVNKNVMDYVNEDEYYLEERVKKKRKKKKKDNKKYNIKNKNESEEIFEDVSSTNSCIDSNNSGTFIYDEEICKHVINKGNIISNNNNNNNNNNYIVLTGNEKNMNAEEISEYITKQGLNFKEYLIWKEIKIKESKELIHLNLDSSFSVSKGAGLYNYGQNICFFNSIIQAIIRIPYICKDLLNKLHSINCEKRKKKTFCFYCLFEQFACNIISKKSVIKNVLIPYIKKYMCNSYHIGYQEDVHEYLRYFLNSLEKTSFFSSIYIQKMFTGVSKNVTICMNCNNVSLKYEQYYELSLDISSSNNLEDALKHFLSKEMLAGENGYYCEKCKKKKKATKQCVINKLPRVLTIQIKRFFMNSNFDIVKNHKNISYPLYLDMKYYVNNYDLFENNFNNNVISLYEKMNKTNCVGSTTNGPNKKNNKIYHQNNSCNIKSNNHFVHTNYNNKGQNILTPEKLTQQNIIPEHSFSKNKVNYENDFFLNNMNKKRECSNDDIISNINKNENIFFNNKDKEYMINEKYMNTNQCIKLRGGNHNINMHVLKIIENILIDLKESMCQKQIQNKLTSKVLRNMIREKKKLLIKQLKKIKFSKLYKDISLRISKDIDMLYYYFKVNRENDQFKKIIYKYKIDYYEYYVGSTNINADFINYNHNFDSPAKDHHNNNPHQNNDENNNRHSNVNFKEGNAKNSNKKNNYFSFELTGLIKHIGSGTDYGHYIALTKSNNNIYLQCDDNHISYINKKDILNCVKNAYVFIYTCINPEFIDFYNKYVDVLEKKNFDINLPVFEKRVKFKERITMPKEKFINKSLCY | not soluble |
| MSLNLDFELNLTQQQKLVMTQQMQMSIKLLQMSNMELNEYIRSEIEENPLLDGKEVIKNDEYQSEMSKVDYKEFIKYLDFDNYTHENYSYRSEEEEVSPFNFIGSKKSFTEYLLDQLREISIDSETRHICEYIIENLDRDGYLRDSLEDIGMAVHKELKSVQNALNVVQSLEPIGVGARNLAECLKLQIYVRNVNDTKLIEIIDKHLGNIAENKYGVIAKELNITPKEAQEYGDYIKKLEPKPSRGFFTGDEVKYVVPDAFIRKIDDDFYVIMNDSSIPKLSINNTYKNILNTENDKKDVDYVKEKLNSAMFLLKSIEQRKTTLYEVLNEILRYQKAYFVGKTNYLRPMTLKDISEKLGMHESTISRAIREKYVYIDTKGLVKIRDMFTTGIASAYSVSEDKKDMSTQKIKNEIRDLIEKENKKSPLSDQKLSEILKEKGMNISRRTVAKYREEIGIKSSAKRKRYEGHHHHHH | soluble |
| MAHHHHHHMLRHCTAHRRYRTAWRELLHPLPVRARKMEWLKRDAVEENEEILRRPYYTIKSYALPPAVGRQESIHNSNNIRGGMHSSHSLDLIMRQPRRVKTPEQLQALRDRLRFIGVTGPMPQATSVSTKSYADTYGSRLRPRYPESWDTVPPHQPSRELL | soluble |
